Changes are numbered by the printed parent chain.
B1: P470 (peptide)
peptide: HSDAVFTEQYTXXRXQVAAXXYLQSIXXGGPSSGAPPPS
modifications: C6-HSDAVFTEQY(OMe)TOrnK(CO(CH2)2SPEG20K)RAibQVAAAibOrnYLQSIOrnOrnGGPSSGAPPPS-NH2
B2: P495 (peptide)
peptide: B1 peptide with X13L, S25X, S39C
modifications: C6-HSDAVFTEQY(OMe)TOrnLRAibQVAAAibOrnYLQK(CO(CH2)2SPEG20K)IOrnOrnGGPSSGAPPPC(PEG20K)-NH2
B3: P497 (peptide)
peptide: B1 peptide with X13L, I26X, S39C
modifications: C6-HSDAVFTEQY(OMe)TOrnLRAibQVAAAibOrnYLQSK(CO(CH2)2SPEG20K)OrnOrnGGPSSGAPPPC(PEG20K)-NH2
B4: P529 (peptide)
peptide: B1 peptide with X13L
modifications: not fully specified; C6-HSDAVFTEQY(OMe)TOrnLRK(WPEG40K)QVAAAibOrnYLQSIOrnOrnGGPSSGAPPPS-NH2
B5: P492 (peptide)
peptide: B1 peptide with X13L, A19X, S39C
modifications: C6-HSDAVFTEQY(OMe)TOrnLRAibQVAK(CO(CH2)2SPEG20K)AibOrnYLQSIOrnOrnGGPSSGAPPPC(PEG20K)-NH2

Target: T1, human VPAC2 receptor (human, UniProt P41587 24-438)
T1 sequence (looked up): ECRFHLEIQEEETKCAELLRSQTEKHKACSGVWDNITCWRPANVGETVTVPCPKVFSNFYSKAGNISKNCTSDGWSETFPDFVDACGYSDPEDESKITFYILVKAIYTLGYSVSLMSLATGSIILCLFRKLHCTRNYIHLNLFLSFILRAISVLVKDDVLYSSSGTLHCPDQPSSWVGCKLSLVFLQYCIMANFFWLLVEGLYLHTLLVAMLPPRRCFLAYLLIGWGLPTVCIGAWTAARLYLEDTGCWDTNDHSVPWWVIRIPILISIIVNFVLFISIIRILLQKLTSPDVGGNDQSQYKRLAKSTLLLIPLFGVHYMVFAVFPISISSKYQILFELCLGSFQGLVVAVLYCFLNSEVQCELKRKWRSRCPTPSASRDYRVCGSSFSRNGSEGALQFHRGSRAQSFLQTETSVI
Assay: cell-based or functional assay

| Binder | Human VPAC2 Receptor: Alphascreen (EC50; nM) [nM] |
| --- | --- |
| B1 | 83.3 |
| B2 | 117 |
| B3 | 176 |
| HSDAVFTEQYTXLRXQCAXXXYLQXIXXGGPSSGAPPPS (C6-HSDAVFTEQY(OMe)TOrnLRAibQC(PEG40K)AAbuAibOrnYLQAibIOrnOrnGGPSSGAPPPS-NH2) [P545] | 45 |
| HSDAVFTEQYTXLRXQXAAXXYLQSIXXGGPSSGAPPPS (C6-HSDAVFTEQY(OMe)TOrnLRAibQK(WPEG40K)AAAibOrnYLQSIOrnOrnGGPSSGAPPPS-NH2) [P533] | 2380 |
| HSDAVFTEQYTXLRXQVAAXXYLQXIXXGGPSSGAPPPC (C6-HSDAVFTEQY(OMe)TOrnLRAibQVAAAibOrnYLQAibIOrnOrnGGPSSGAPPPC(PEG40K)-NH2) [P509] | 13 |
| B4 | 170 |
| HSDAVFTEQYTXLRXQVAAXXYLQSIXXGGPSSGAPPPS (C6-HSDAVFTEQY(OMe)TOrnLRAibQVAAAibK(W-PEG40K)YLQSIOrnOrnGGPSSGAPPPS-NH2) [P410] | 129 |
| B5 | 510 |
| HSDAVFTEQYTXLRXQVAAXXYLQSIXXGGPSSGAPPPS (C6-HSDAVFTEQY(OMe)TOrnLRAibQVAAAibK(CO(CH2)2SPEG20K)YLQSIOrnOrnGGPSSGAPPPS-NH2) [P473] | 26.5 |
| HSDAVFTEQYTXLRXQVAAXXYLQSXXXGGPSSGAPPPS (C6-HSDAVFTEQY(OMe)TOrnLRAibQVAAAibOrnYLQSK(WPEG40K)OrnOrnGGPSSGAPPPS-NH2) [P535] | 98.4 |
| HSDAVFTEQYTXLRXQVAAXXYLQSCXXGGPSSGAPPPC (C6-HSDAVFTEQY(OMe)TOrnLRAibQVAAAibOrnYLQSC(PEG20K)OrnOrnGGPSSGAPPPC(PEG20K)-NH2) [P503] | 147 |
| HSDAVFTEQYTXLRXQLAXXXYLQXCXXGGPSSGAPPPS (C6-HSDAVFTEQY(OMe)TOrnLRAibQLAAbuAibOrnYLQAibC(PEG40K)OrnOrnGGPSSGAPPPS-NH2) [P541] | 45.8 |

Target: T2, rat VPAC1 receptor (rat, UniProt P30083 31-459)
T2 sequence (looked up): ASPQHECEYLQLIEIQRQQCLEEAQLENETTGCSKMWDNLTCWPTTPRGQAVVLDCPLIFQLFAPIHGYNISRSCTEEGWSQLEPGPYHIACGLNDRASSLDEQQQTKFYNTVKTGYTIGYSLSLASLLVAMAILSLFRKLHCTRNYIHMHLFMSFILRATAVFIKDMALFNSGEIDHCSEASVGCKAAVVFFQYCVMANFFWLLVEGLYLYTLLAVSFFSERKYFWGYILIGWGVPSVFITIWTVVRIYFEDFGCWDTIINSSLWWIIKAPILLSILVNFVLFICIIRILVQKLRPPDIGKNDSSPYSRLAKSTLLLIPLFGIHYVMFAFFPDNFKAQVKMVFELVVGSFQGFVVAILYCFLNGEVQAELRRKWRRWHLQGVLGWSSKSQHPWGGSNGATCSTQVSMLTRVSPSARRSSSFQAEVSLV
Assay: cell-based or functional assay

| Binder | Rat VPAC1 Receptor: DiscoveRx: (EC50; nM) [nM] |
| --- | --- |
| B1 | > 1000 |
| B3 | > 1000 |
| HSDAVFTEQYTXLRXQCAXXXYLQXIXXGGPSSGAPPPS (C6-HSDAVFTEQY(OMe)TOrnLRAibQC(PEG40K)AAbuAibOrnYLQAibIOrnOrnGGPSSGAPPPS-NH2) [P545] | 380 |
| HSDAVFTEQYTXLRXQVAAXXYLQXIXXGGPSSGAPPPC (C6-HSDAVFTEQY(OMe)TOrnLRAibQVAAAibOrnYLQAibIOrnOrnGGPSSGAPPPC(PEG40K)-NH2) [P509] | 328 |
| B4 | 1180 |
| HSDAVFTEQYTXLRXQVAAXXYLQSIXXGGPSSGAPPPS (C6-HSDAVFTEQY(OMe)TOrnLRAibQVAAAibK(W-PEG40K)YLQSIOrnOrnGGPSSGAPPPS-NH2) [P410] | > 1000 |
| B5 | > 4000 |
| HSDAVFTEQYTXLRXQVAAXXYLQSIXXGGPSSGAPPPS (C6-HSDAVFTEQY(OMe)TOrnLRAibQVAAAibK(CO(CH2)2SPEG20K)YLQSIOrnOrnGGPSSGAPPPS-NH2) [P473] | > 1000 |
| HSDAVFTEQYTXLRXQVAAXXYLQSXXXGGPSSGAPPPS (C6-HSDAVFTEQY(OMe)TOrnLRAibQVAAAibOrnYLQSK(WPEG40K)OrnOrnGGPSSGAPPPS-NH2) [P535] | > 1000 |
| HSDAVFTEQYTXLRXQVAAXXYLQSCXXGGPSSGAPPPC (C6-HSDAVFTEQY(OMe)TOrnLRAibQVAAAibOrnYLQSC(PEG20K)OrnOrnGGPSSGAPPPC(PEG20K)-NH2) [P503] | > 4000 |
| HSDAVFTEQYTXLRXQLAXXXYLQXCXXGGPSSGAPPPS (C6-HSDAVFTEQY(OMe)TOrnLRAibQLAAbuAibOrnYLQAibC(PEG40K)OrnOrnGGPSSGAPPPS-NH2) [P541] | 665 |

Target: T3, rat VPAC2 receptor (rat, UniProt P35000 23-437)
T3 sequence (looked up): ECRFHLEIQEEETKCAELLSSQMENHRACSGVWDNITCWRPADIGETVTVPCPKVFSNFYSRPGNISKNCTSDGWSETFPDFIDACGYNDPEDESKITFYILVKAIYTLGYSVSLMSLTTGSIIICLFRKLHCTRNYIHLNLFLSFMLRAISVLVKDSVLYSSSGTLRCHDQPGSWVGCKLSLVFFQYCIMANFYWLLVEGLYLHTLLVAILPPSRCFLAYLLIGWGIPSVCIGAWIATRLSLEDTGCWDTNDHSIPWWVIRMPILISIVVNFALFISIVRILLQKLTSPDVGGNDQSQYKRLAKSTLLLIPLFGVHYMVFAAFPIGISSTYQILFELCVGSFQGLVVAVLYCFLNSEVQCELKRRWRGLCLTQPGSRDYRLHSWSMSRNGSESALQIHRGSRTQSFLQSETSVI
Assay: cell-based or functional assay

| Binder | Rat VPAC2 Receptor: DiscoveRx: (EC50; nM) [nM] |
| --- | --- |
| B1 | 111 |
| B3 | 345 |
| HSDAVFTEQYTXLRXQCAXXXYLQXIXXGGPSSGAPPPS (C6-HSDAVFTEQY(OMe)TOrnLRAibQC(PEG40K)AAbuAibOrnYLQAibIOrnOrnGGPSSGAPPPS-NH2) [P545] | 99.5 |
| HSDAVFTEQYTXLRXQVAAXXYLQXIXXGGPSSGAPPPC (C6-HSDAVFTEQY(OMe)TOrnLRAibQVAAAibOrnYLQAibIOrnOrnGGPSSGAPPPC(PEG40K)-NH2) [P509] | 28.2 |
| B4 | 199 |
| HSDAVFTEQYTXLRXQVAAXXYLQSIXXGGPSSGAPPPS (C6-HSDAVFTEQY(OMe)TOrnLRAibQVAAAibK(W-PEG40K)YLQSIOrnOrnGGPSSGAPPPS-NH2) [P410] | 318 |
| B5 | 963 |
| HSDAVFTEQYTXLRXQVAAXXYLQSIXXGGPSSGAPPPS (C6-HSDAVFTEQY(OMe)TOrnLRAibQVAAAibK(CO(CH2)2SPEG20K)YLQSIOrnOrnGGPSSGAPPPS-NH2) [P473] | 25.5 |
| HSDAVFTEQYTXLRXQVAAXXYLQSXXXGGPSSGAPPPS (C6-HSDAVFTEQY(OMe)TOrnLRAibQVAAAibOrnYLQSK(WPEG40K)OrnOrnGGPSSGAPPPS-NH2) [P535] | 318 |
| HSDAVFTEQYTXLRXQVAAXXYLQSCXXGGPSSGAPPPC (C6-HSDAVFTEQY(OMe)TOrnLRAibQVAAAibOrnYLQSC(PEG20K)OrnOrnGGPSSGAPPPC(PEG20K)-NH2) [P503] | 520 |
| HSDAVFTEQYTXLRXQLAXXXYLQXCXXGGPSSGAPPPS (C6-HSDAVFTEQY(OMe)TOrnLRAibQLAAbuAibOrnYLQAibC(PEG40K)OrnOrnGGPSSGAPPPS-NH2) [P541] | 102 |

Target: T1, human VPAC2 receptor
Assay: filter binding, VPAC2 cell membranes, displacement of 125I-VIP
Experimental: Binding assays: Membrane prepared from a stable VPAC2 cell line (see Example 3) or from cells transiently transfected with human VPAC1 or PAC1 are used.
The assay plate is filled with 25 μL assay buffer, 25 μL membranes (2.5 μg) suspended in assay buffer, 25 μL agonist in assay buffer, and 25 μL tracer (about 40000 cpm) in assay buffer. The filled plate is incubated for 1 hour with shaking.
The transfer from assay plate to filter plate is conducted. The blocking buffer is aspirated by vacuum filtration and washed two times with flush buffer. 90 μL is transferred from the assay plate to the filter plate. The 90 μL transferred from assay plate is aspirated and washed three times with 200 μL flush buffer. The plastic support is removed. It is dried for 1 hour at 60° C. 30 μL Microscint is added. The count is performed.

| Binder | IC50 [nM] |
| --- | --- |
| B1 | 263 |
| B2 | 142 |
| B3 | 146 |
| HSDAVFTEQYTXLRXQCAXXXYLQXIXXGGPSSGAPPPS (C6-HSDAVFTEQY(OMe)TOrnLRAibQC(PEG40K)AAbuAibOrnYLQAibIOrnOrnGGPSSGAPPPS-NH2) [P545] | 79.9 |
| HSDAVFTEQYTXLRXQVAAXXYLQXIXXGGPSSGAPPPC (C6-HSDAVFTEQY(OMe)TOrnLRAibQVAAAibOrnYLQAibIOrnOrnGGPSSGAPPPC(PEG40K)-NH2) [P509] | 11.2 |
| B4 | 192 |
| HSDAVFTEQYTXLRXQVAAXXYLQSIXXGGPSSGAPPPS (C6-HSDAVFTEQY(OMe)TOrnLRAibQVAAAibK(W-PEG40K)YLQSIOrnOrnGGPSSGAPPPS-NH2) [P410] | 264 |
| B5 | 156 |
| HSDAVFTEQYTXLRXQVAAXXYLQSIXXGGPSSGAPPPS (C6-HSDAVFTEQY(OMe)TOrnLRAibQVAAAibK(CO(CH2)2SPEG20K)YLQSIOrnOrnGGPSSGAPPPS-NH2) [P473] | 256 |
| HSDAVFTEQYTXLRXQVAAXXYLQSXXXGGPSSGAPPPS (C6-HSDAVFTEQY(OMe)TOrnLRAibQVAAAibOrnYLQSK(WPEG40K)OrnOrnGGPSSGAPPPS-NH2) [P535] | 145 |
| HSDAVFTEQYTXLRXQVAAXXYLQSCXXGGPSSGAPPPC (C6-HSDAVFTEQY(OMe)TOrnLRAibQVAAAibOrnYLQSC(PEG20K)OrnOrnGGPSSGAPPPC(PEG20K)-NH2) [P503] | 41.5 |
| HSDAVFTEQYTXLRXQLAXXXYLQXCXXGGPSSGAPPPS (C6-HSDAVFTEQY(OMe)TOrnLRAibQLAAbuAibOrnYLQAibC(PEG40K)OrnOrnGGPSSGAPPPS-NH2) [P541] | 59.8 |

— patent US20080234198A1 (Eli Lilly, published 2008)
